How the values were obtained:
[1] = biological target: T1, human C-MET on stably transfected CHO-K1 cells (human, UniProt P08581 25-1390); test: flow cytometry, C-MET CHO-K1 cells
T1 construct: also called hucMET; human C-MET+ CHO-K1 cells
Procedure: (§1) Purified IgGs were tested in FACs for binding to human and cyno C-MET expressed on CHO-K1 stable cell lines and CHO-K1 wild-type cells. The IgG samples were titrated in three-fold serial dilutions starting at 500 nM to 0.08 nM. Binding of IgGs was detected with a mouse anti-human IgG conjugated to FITC. Results were analyzed by examining the Mean Fluorescence Intensity (MFI) of 10000 cells per sample in the BL-1 channel detector of a flow cytometer (Attune™ NxT Acoustic Focusing Cytometer, Invitrogen/ThermoFisher Scientific).
(§2) Antibodies to C-MET were analysed for concentration-dependent binding at the cell surface via flow cytometry. CHO-K1 cells were stably transfected with either human or cyno C-MET full-length cDNAs. Anti-C-MET IgGs and an isotype control IgG4(S228P) were then all tested in IgG4(S228P) format, over a concentration range of 500-0.08 nM for binding to human (FIG. 5A) and cyno (FIG. 5B) CHO-K1 cells.

[2] = biological target: T2, cynomolgus monkey C-MET on stably transfected CHO-K1 cells (cynomolgus monkey, UniProt A0M8R7 25-1381 (Papio anubis entry)); test: flow cytometry, C-MET CHO-K1 cells
T2 construct: also called cycMET; cyno C-MET+ CHO-K1 cells
T2 sequence (A0M8R7 25-1381 S170N/I621T limits assumed): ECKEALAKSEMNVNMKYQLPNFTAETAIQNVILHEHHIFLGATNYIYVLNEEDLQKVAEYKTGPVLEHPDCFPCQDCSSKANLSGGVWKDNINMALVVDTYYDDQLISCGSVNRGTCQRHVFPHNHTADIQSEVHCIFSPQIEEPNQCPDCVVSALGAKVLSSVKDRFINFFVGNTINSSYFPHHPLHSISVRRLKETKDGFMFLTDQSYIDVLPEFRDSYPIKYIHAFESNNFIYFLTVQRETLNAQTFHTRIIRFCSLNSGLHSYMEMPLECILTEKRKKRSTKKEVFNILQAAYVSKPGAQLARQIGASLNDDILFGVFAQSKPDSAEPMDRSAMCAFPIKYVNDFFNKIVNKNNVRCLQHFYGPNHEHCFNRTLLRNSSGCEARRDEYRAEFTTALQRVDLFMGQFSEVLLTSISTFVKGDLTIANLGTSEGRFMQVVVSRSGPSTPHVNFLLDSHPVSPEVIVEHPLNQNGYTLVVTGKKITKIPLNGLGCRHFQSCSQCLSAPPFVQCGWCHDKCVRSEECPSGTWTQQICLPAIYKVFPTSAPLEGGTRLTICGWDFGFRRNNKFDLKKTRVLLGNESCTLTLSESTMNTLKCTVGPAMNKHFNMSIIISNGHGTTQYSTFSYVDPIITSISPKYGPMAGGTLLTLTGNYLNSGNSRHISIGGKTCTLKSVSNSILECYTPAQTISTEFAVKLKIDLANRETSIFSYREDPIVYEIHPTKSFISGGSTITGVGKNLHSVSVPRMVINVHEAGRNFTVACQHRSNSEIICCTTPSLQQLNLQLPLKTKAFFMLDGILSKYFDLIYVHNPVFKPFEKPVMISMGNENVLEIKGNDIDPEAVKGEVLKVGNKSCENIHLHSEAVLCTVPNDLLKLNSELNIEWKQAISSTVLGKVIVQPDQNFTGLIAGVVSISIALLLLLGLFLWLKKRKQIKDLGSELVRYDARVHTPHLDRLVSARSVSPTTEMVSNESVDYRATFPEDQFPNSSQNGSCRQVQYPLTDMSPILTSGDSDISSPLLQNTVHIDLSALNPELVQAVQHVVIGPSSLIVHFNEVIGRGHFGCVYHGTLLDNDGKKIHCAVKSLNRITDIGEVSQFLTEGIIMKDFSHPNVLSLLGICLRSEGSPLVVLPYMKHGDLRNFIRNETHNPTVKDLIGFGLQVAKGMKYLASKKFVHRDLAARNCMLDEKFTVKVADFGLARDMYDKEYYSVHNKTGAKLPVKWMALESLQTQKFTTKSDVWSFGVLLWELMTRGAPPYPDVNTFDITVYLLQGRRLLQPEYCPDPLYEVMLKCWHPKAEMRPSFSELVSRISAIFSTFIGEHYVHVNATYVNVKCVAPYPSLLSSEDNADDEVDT
Procedure: as §1, §2

[3] = biological target: T3, human C-MET His tagged, monomeric (human, UniProt P08581 25-932); test: SPR Biacore, IgG captured, monomeric C-MET-His analyte
T3 construct: also called monomeric human C-MET; biotinylated human C-MET-His
T3 sequence (P08581 25-932): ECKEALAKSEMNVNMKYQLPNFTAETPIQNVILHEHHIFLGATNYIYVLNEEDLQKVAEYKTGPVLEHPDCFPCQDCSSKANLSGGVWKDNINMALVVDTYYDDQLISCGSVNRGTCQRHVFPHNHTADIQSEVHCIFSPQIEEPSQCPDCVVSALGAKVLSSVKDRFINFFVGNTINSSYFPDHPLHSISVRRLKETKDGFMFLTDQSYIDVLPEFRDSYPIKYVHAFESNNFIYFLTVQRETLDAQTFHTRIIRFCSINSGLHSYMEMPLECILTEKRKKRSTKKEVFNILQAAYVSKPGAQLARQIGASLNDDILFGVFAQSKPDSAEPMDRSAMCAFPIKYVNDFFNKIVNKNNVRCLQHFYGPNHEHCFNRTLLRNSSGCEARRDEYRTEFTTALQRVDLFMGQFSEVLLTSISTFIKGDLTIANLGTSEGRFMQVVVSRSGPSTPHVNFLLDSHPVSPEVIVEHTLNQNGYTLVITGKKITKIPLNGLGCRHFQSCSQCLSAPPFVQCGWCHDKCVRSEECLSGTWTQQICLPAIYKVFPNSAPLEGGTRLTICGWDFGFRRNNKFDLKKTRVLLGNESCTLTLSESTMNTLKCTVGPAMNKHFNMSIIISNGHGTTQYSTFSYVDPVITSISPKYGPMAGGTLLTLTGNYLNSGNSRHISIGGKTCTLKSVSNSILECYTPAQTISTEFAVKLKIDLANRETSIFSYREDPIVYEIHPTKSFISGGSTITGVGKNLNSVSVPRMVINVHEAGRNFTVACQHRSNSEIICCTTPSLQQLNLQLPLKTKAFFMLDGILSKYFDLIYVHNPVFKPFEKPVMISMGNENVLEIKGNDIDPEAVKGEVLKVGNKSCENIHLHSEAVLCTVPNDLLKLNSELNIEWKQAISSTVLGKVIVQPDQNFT
Procedure: (§3) Affinity (KD) of purified IgGs was determined via SPR with antigen in-solution on a Biacore® 3000 (GE). A mouse anti-human antibody (CH1 specific) was immobilized on a CM5 Sensor Chip to a level of 2000 RU in acetate buffer at pH 4.5 using amine coupling following the Wizard instructions for two channels. One channel was used for background signal correction. The standard running buffer HBS-EP pH 7.4 was used. Regeneration was performed with a single injection of 10 μl of 10 mM Glycine at pH 1.5 at 20 μl/minute. IgG samples were injected for 2 minutes at 50 nM at 30 μl/min followed by and off-rate of 60 seconds. The monomeric antigen (human C-MET His tagged or cynomolgus monkey C-MET His tag) was injected in two fold serial dilutions from 100 nM down to 6 nM, for 2 minutes at 30 μl/min followed by an off-rate of 300 seconds. The obtained sensorgrams were analysed using the Biacore® 3000 evaluation (BIAevaluation) software. The KD was calculated by simultaneous fitting of the association and dissociation phases to a 1:1 Langmuir binding model.

[4] = biological target: T4, cynomolgus monkey C-MET His tag, monomeric (cynomolgus monkey, UniProt A0M8R7 25-932 (Papio anubis entry)); test: as above
T4 construct: also called monomeric cyno C-MET; cyCMET
T4 sequence (A0M8R7 25-932 S170N/I621T): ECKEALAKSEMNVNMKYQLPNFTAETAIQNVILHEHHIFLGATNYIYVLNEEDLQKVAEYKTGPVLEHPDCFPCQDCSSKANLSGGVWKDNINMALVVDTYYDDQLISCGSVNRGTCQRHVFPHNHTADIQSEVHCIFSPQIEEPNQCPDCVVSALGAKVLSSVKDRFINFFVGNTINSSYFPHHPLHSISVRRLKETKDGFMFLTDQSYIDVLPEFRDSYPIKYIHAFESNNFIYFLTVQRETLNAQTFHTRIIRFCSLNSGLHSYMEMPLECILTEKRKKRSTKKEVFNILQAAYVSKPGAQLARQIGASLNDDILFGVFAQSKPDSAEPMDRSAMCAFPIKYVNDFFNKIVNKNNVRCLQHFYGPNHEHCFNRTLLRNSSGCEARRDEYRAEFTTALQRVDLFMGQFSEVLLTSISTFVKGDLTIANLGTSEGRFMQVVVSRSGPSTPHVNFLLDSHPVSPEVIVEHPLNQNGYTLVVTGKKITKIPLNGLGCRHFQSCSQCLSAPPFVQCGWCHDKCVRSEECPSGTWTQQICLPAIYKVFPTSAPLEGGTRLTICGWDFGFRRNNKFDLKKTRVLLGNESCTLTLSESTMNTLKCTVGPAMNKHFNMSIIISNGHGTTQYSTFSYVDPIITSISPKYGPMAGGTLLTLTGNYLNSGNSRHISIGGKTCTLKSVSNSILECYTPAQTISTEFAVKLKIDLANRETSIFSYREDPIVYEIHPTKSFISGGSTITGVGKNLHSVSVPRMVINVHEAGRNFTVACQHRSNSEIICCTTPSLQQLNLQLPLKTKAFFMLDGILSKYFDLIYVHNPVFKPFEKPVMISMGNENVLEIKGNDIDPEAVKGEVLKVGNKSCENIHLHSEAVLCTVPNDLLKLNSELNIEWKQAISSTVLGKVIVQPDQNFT
Procedure: as §3

[5] = biological target: T1, human C-MET on stably transfected …; test: flow cytometry, C-MET CHO-K1 cells; remark: listed apart in the source
Procedure: as §1

[6] = biological target: T2, cynomolgus monkey C-MET on stably …; test: flow cytometry, C-MET CHO-K1 cells; remark: listed apart in the source
Procedure: as §1

T1 sequence (P08581 25-1390 limits assumed): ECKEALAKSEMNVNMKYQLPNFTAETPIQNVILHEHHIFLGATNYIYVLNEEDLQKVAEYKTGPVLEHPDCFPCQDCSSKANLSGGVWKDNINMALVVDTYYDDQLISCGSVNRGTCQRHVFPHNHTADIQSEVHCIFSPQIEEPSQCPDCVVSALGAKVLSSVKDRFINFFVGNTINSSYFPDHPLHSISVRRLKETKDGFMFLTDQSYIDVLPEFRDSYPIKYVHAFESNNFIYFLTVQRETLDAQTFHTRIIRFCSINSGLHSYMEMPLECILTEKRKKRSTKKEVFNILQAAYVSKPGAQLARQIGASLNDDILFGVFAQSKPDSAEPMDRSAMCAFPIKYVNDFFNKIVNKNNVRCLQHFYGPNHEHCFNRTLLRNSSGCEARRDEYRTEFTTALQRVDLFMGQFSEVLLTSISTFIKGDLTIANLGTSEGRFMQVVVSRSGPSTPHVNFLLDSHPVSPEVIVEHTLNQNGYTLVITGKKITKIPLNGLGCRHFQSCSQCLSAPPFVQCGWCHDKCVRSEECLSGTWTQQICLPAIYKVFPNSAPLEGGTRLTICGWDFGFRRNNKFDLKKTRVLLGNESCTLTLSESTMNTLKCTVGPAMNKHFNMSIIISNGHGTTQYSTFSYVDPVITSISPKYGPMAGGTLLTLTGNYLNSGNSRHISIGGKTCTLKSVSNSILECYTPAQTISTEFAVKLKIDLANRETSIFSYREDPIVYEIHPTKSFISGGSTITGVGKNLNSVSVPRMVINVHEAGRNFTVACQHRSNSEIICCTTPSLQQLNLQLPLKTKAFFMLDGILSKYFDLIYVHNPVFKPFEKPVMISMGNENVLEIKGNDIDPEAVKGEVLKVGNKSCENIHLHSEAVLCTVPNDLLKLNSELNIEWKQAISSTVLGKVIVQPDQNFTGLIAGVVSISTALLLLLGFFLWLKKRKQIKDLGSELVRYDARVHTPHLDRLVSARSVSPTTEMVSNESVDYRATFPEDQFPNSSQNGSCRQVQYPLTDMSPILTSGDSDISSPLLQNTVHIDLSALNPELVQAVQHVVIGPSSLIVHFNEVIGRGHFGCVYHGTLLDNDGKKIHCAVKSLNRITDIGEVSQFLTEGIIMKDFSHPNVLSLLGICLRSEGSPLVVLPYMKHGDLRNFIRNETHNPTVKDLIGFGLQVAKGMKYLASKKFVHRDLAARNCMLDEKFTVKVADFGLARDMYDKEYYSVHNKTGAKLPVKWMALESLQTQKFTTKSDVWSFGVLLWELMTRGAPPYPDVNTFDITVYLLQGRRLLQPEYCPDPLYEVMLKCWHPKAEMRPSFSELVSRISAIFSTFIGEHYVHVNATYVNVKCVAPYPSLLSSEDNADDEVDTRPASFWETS

Row | Binder | maximum MFI, fold over Isotype IgG4 background [1] [fold] | maximum MFI, fold over Isotype IgG4 background [2] [fold] | Kd [3] [nM] | koff [3] [s⁻¹] | kon [3] [M⁻¹ s⁻¹] | Kd [4] [nM] | koff [4] [s⁻¹] | kon [4] [M⁻¹ s⁻¹] | EC50 [5] [nM] | EC50 [6] [nM]
1 | 07C10 (antibody, IgG4, V domains shown) VH: QVQLVQSGAEVKKPGASVKVSCKASGYIFTAYSMHWVRQAPGQGLEWMGIIKPSNGSTNYAQKFQGRVTMTRDTSTSTVYMELSSLRSEDTAVYYCARAEITTEFDYWGQGTLVTVSS VL: EIVLTQSPGTLSLSPGERATLSCRASQSVESYAQSYLHWYQQKPGQAPRLLIYRGSTRESGIPDRFSGSGSGTDFTLTISRLEPEDFAVYYCQQSKEEPLTFGGGTKVEIK | > 10 | > 10 | 0.78 | 9.4e-05 | 120000 | 3.2 | 0.00021 | 65000 | 9.59 | 2.82
2 | MH5 (antibody, IgG4, V domains shown) VH: QVQLVQSGAEVKKPGASVKVSCKASGYTFTSYTMHWVRQAPGQGLEWMGWINPSGGSTSYAQKFQGRVTMTRDTSTSTVYMELSSLRSEDTAVYYCARQEITTEFDYWGQGTLVTVSS VL: EIVLTQSPGTLSLSPGERATLSCRASQSVSSYAQSYLHWYQQKPGQAPRLLIYRGSTRETGIPDRFSGSGSGTDFTLTISRLEPEDFAVYYCQQSGSSPLTFGGGTKVEIK | > 10 | > 10 | 2 | 0.00015 | 77000 | 1.3 | 0.00021 | 170000 | 1.76 | 0.3
3 | 08B12 (antibody, IgG4, V domains shown) VH: QVQLVQSGAEVKKPGASVKVSCKASGYIFTAYSMHWVRQAPGQGLEWMGWIKPNNGSTNYAQKFQGRVTMTRDTSTSTVYMELSSLRSEDTAVYYCARTEITTEFDYWGQGTLVTVSS VL: EIVLTQSPGTLSLSPGERATLSCRASQSVDSYANSYLHWYQQKPGQAPRLLIYRGSTRETGIPDRFSGSGSGTDFTLTISRLEPEDFAVYYCQQSKSDPLTFGGGTKVEIK | > 10 | > 10 | 8.4 | 0.00031 | 37000 | 8.1 | 0.00043 | 54000 | 11.7 | 1.34
4 | MH11 (antibody, IgG4, V domains shown) VH: QVQLVQSGAEVKKPGASVKVSCKASGYTFTSYAMHWVRQAPGQGLEWMGWINPSGGSTSYAQKFQGRVTMTRDTSTSTVYMELSSLRSEDTAVYYCARQEITTEFDYWGQGTLVTVSS VL: EIVLTQSPGTLSLSPGERATLSCRASQSVSSYAQSYLHWYQQKPGQAPRLLIYRGSTRETGIPDRFSGSGSGTDFTLTISRLEPEDFAVYYCQQSGSSPLTFGGGTKVEIK | > 10 | > 10 | 2.6 | 0.00016 | 62000 | 1.2 | 0.00018 | 150000 | 1.68 | 0.69
5 | MH6 (antibody, IgG4, V domains shown) VH: QVQLVQSGAEVKKPGASVKVSCKASGYTFTSYTMHWVRQAPGQGLEWMGWINPSGGSTSYAQKFQGRVTMTRDTSTSTVYMELSSLRSEDTAVYYCARQEITTEFDYWGQGTLVTVSS VL: EIVLTQSPGTLSLSPGERATLSCRASQSVSSYAQSYLHWYQQKPGQAPRLLIYRGSTRETGIPDRFSGSGSGTDFTLTISRLEPEDFAVYYCQQYGSSPLTFGGGTKVEIK | > 10 | > 10 | 8.2 | 0.00053 | 65000 | 4 | 0.00063 | 160000 | 1.33 | 0.72
6 | MH1 (antibody, IgG4, V domains shown) VH: QVQLVQSGAEVKKPGASVKVSCKASGYTFTSYTMHWVRQAPGQGLEWMGWINPNGGSTSYAQKFQGRVTMTRDTSTSTVYMELSSLRSEDTAVYYCARQEITTEFDYWGQGTLVTVSS VL: EIVLTQSPGTLSLSPGERATLSCRASQSVSSYANSYLHWYQQKPGQAPRLLIYRGSTRESGIPDRFSGSGSGTDFTLTISRLEPEDFAVYYCQQSKSEPLTFGGGTKVEIK | > 10 | > 10 | 0.75 | 7.11e-05 | 94700 | 0.14 | 2.6e-05 | 180000 | 2.02 | 0.26

Continued by falling Kd [3], values first:

Row | maximum MFI, fold over Isotype IgG4 background [1] [fold] | maximum MFI, fold over Isotype IgG4 background [2] [fold] | Kd [3] [nM] | koff [3] [s⁻¹] | kon [3] [M⁻¹ s⁻¹] | Kd [4] [nM] | koff [4] [s⁻¹] | kon [4] [M⁻¹ s⁻¹] | EC50 [5] [nM] | EC50 [6] [nM] | Binder
7 | > 10 | > 10 | 7.6 | 0.00051 | 68000 | 4.1 | 0.00062 | 150000 | 1.66 | 0.27 | MH3 (antibody, IgG4, V domains shown, also called MH03) VH: QVQLVQSGAEVKKPGASVKVSCKASGYTFTSYTMHWVRQAPGQGLEWMGWINPNGGSTSYAQKFQGRVTMTRDTSTSTVYMELSSLRSEDTAVYYCARQEITTEFDYWGQGTLVTVSS VL: EIVLTQSPGTLSLSPGERATLSCRASQSVSSYAQSYLHWYQQKPGQAPRLLIYRGSTRETGIPDRFSGSGSGTDFTLTISRLEPEDFAVYYCQQYGSSPLTFGGGTKVEIK
8 | > 10 | > 10 | 6.5 | 0.00037 | 56000 | 4 | 0.00043 | 110000 | 1.25 | 0.51 | MH12 (antibody, IgG4, V domains shown) VH: QVQLVQSGAEVKKPGASVKVSCKASGYTFTSYAMHWVRQAPGQGLEWMGWINPSGGSTSYAQKFQGRVTMTRDTSTSTVYMELSSLRSEDTAVYYCARQEITTEFDYWGQGTLVTVSS VL: EIVLTQSPGTLSLSPGERATLSCRASQSVSSYAQSYLHWYQQKPGQAPRLLIYRGSTRETGIPDRFSGSGSGTDFTLTISRLEPEDFAVYYCQQYGSSPLTFGGGTKVEIK
9 | > 10 | > 10 | 2.5 | 0.00018 | 73000 | 0.87 | 0.00021 | 240000 | 1.59 | 0.34 | MH2 (antibody, IgG4, V domains shown) VH: QVQLVQSGAEVKKPGASVKVSCKASGYTFTSYTMHWVRQAPGQGLEWMGWINPNGGSTSYAQKFQGRVTMTRDTSTSTVYMELSSLRSEDTAVYYCARQEITTEFDYWGQGTLVTVSS VL: EIVLTQSPGTLSLSPGERATLSCRASQSVSSYAQSYLHWYQQKPGQAPRLLIYRGSTRETGIPDRFSGSGSGTDFTLTISRLEPEDFAVYYCQQSGSSPLTFGGGTKVEIK
10 | > 10 | > 10 | 1.1 | 4.1e-05 | 37000 | 0.2 | 1.2e-05 | 60000 | 9.3 | 3.78 | 09B08 (antibody, IgG4, V domains shown) VH: QVQLVQSGAEVKKPGASVKVSCKASGYTFTSYTMHWVRQAPGQGLEWMGWINPNNGSTNYAQKFQGRVTMTRDTSTSTVYMELSSLRSEDTAVYYCARSEITTDFDYWGQGTLVTVSS VL: EIVLTQSPGTLSLSPGERATLSCRASQSVSSYANSYLHWYQQKPGQAPRLLIYRGSTRESGIPDRFSGSGSGTDFTLTISRLEPEDFAVYYCQQSKSDPLTFGGGTKVEIK
11 | > 10 | > 10 | 0.37 | 3.7e-05 | 99000 | 0.22 | 5.2e-05 | 230000 | – | – | Grafted clone (Graft), IGHV1-46/IGKV3-20 CDR graft of 224G11 (antibody, human IgG4, V domains shown, also called VH graft/VL graft) VH: QVQLVQSGAEVKKPGASVKVSCKASGYIFTAYTMHWVRQAPGQGLEWMGWIKPNNGLANYAQKFQGRVTMTRDTSTSTVYMELSSLRSEDTAVYYCARSEITTEFDYWGQGTLVTVSS VL: EIVLTQSPGTLSLSPGERATLSCRASQSVDSYANSFLHWYQQKPGQAPRLLIYRASTRESGIPDRFSGSGSGTDFTLTISRLEPEDFAVYYCQQSKEDPLTFGGGTKVEIK

Source: patent publication US20260042850A1 (LOCKBODY THERAPEUTICS, published 2026)
